The values below come from publication PMC6309729.

One assay deals with FtsY (Escherichia coli) (UniProt P10121). The note with it: cited from earlier work.
Assay [1] concerns the target cpSRP54 (chloroplast SRP54), wildtype (Arabidopsis thaliana) (UniProt P37107). In words: GTPase inhibition assay.
Assay [2] has the same target. The assay is described as follows: GTPase inhibition assay. This is another data set of the same source.
Assay [3] has the same target.
Assay [4] deals with cpFtsY(A168W) labeled for FRET. In words: FRET or BRET. (In general: BRET reads energy transfer from a luciferase to a nearby fluorophore.)
The target in another assay is cpFtsY(321C)-DACM (UniProt O80842). The assay is described as follows: FRET or BRET.
In assay [5] the target is cpFtsY (chloroplast SRP receptor), wildtype (UniProt O80842). The assay is described as follows: GTPase inhibition assay.
Assay [6] shares this target.
Assay [7] shares this target. The assay is described as follows: GTPase inhibition assay. The source holds these as a separate data set.

Read-outs that look alike come from different tables or passages of the source. Some results are limits rather than exact numbers.

cpSRP54 (chloroplast SRP54), wildtype (Arabidopsis thaliana), sequence (P37107 76-564): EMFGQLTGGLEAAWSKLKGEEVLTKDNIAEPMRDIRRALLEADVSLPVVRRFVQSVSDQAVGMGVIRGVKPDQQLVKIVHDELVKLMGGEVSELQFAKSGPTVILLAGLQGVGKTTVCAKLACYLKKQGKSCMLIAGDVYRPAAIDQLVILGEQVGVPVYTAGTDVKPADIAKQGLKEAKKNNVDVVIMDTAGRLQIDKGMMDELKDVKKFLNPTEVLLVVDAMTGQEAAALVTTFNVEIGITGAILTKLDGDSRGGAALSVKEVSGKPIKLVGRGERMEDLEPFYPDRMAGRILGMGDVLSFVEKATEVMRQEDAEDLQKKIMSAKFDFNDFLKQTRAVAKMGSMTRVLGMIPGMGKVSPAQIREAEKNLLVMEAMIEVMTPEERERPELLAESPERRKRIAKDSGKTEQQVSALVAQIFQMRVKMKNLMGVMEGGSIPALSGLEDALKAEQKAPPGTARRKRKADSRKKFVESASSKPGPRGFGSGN
Ffh, sequence (P0AGD7 whole entry): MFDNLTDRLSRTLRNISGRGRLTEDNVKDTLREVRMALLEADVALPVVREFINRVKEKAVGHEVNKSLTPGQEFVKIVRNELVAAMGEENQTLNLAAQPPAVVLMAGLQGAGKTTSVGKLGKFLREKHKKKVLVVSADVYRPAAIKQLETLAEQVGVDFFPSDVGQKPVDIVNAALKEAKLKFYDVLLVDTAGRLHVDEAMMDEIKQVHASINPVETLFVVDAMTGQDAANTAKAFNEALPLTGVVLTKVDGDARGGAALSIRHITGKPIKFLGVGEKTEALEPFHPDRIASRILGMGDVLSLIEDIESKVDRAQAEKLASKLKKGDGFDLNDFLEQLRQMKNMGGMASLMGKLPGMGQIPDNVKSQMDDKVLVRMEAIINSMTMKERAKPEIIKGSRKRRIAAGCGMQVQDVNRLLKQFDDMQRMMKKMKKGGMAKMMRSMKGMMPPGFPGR
FtsY (Escherichia coli), sequence (P10121 2-497): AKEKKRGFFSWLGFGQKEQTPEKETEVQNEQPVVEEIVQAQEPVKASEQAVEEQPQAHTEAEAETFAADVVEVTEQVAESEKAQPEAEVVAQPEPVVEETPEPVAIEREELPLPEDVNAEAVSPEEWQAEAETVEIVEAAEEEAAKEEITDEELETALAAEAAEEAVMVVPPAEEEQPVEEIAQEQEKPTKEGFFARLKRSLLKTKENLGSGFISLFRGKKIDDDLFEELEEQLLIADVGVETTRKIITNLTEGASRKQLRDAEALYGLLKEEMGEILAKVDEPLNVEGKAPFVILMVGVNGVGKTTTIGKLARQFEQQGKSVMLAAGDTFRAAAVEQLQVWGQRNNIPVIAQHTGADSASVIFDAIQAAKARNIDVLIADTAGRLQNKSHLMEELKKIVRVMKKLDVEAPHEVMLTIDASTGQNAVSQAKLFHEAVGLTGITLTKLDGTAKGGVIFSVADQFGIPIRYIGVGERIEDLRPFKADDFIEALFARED

In general, Kd refers to the concentration at which binding is half-saturated. Take Ffh (from UniProt P0AGD7): the Kd with FtsY (Escherichia coli) was 6000 nM.
What is called Ki is the equilibrium dissociation constant of an inhibitor or competing ligand from its target. On to cpFtsY(A168W) (natural protein), for which the figures for the Ki in [1] and in assay [2] were 230 nM and less than 200 nM, respectively.
As to cpFtsY(F165A) (natural protein), in [3], the kcat/Km of the reciprocally stimulated GTPase reaction turned out to be 633000 M⁻¹ s⁻¹.
For the substance cpFtsY(R166A) (natural protein), the inhibition constant Ki in [1] stood at 3200 nM. In addition, the kcat/Km of the reciprocally stimulated GTPase reaction in assay [3] was determined as 14800 M⁻¹ s⁻¹.
In general, kon refers to a measure of how fast the partners come together. Low values mean slower complex formation, high ones faster complex formation. Take “cpSRP54(234C)-BODIPY-FL (from UniProt P37107 76-564) (natural protein)”: the dissociation constant (Kd) in assay [4] is 350 nM. Besides, in the assay with cpFtsY(321C)-DACM, the Kd was determined as 7000 nM and the kon came out at 500000 M⁻¹ s⁻¹.
In [5], cpSRP54(A142W) (natural protein) came in with a Ki of 110 nM. Also, in [6], the Km of the reciprocally stimulated GTPase reaction stood at 0.24 µM and the kcat/Km of the reciprocally stimulated GTPase reaction turned out to be 46700 M⁻¹ s⁻¹. This substance also displayed an inhibition constant Ki in assay [7] of less than 200 nM.
The substance cpSRP54(D137A) (natural protein) showed an inhibition constant Ki in [5] of 2000 nM. The kcat/Km of the reciprocally stimulated GTPase reaction in [6] was found to be 3170 M⁻¹ s⁻¹.
For cpSRP54(R140A) (natural protein), the Ki in [5] amounted to 510 nM. Besides, the kcat/Km of the reciprocally stimulated GTPase reaction in assay [6] was determined as 9000 M⁻¹ s⁻¹.
